Blank lines part the entries; values can stand above or below the binder they belong to.
Experiments:
[1] = molecular target: T1, Xatr (endogenous Xenopus ATR in egg extracts) (Xenopus laevis, UniProt Q9DE14 1-2654); experiment: GST pull-down from Xenopus egg extracts, immunoblot
T1 construct: Endogenous protein of whole or mock-depleted egg extracts, where endogenous Xatrip is also present

[2] = molecular target: T1, Xatr (endogenous Xenopus ATR in egg …); experiment: GST pull-down from Xenopus egg extracts, immunoblot (FIG. 4A)
Description: The extracts were filtered through a G25 Sephadex column to remove endogenous glutathione and incubated with glutathione agarose beads. The beads were isolated and immunoblotted for Xatr (top) and Xatrip (bottom). In FIG. 4B, egg extracts (lane 1) were immunodepleted with control (lane 2) or anti-Xatrip antibodies (lanes 3 and 4). For lane 4, recombinant XatripΔN222-FLAG was added back later. Extracts were immunoblotted with anti-Xatr (top) and anti-Xatrip antibodies (bottom). […] Binding of Xatr to glutathione beads was determined by immunoblotting as in FIG. 4A. In FIG. 4D, Xatr was immunoprecipitated from mock-depleted (lanes 1 and 2) and Xatrip-depleted extracts (lanes 3 and 4). Twice as much Xatrip-depleted extract was immunoprecipitated due to its reduced content of Xatr. […] Samples were also immunoblotted for Xatr (top) and Xatrip (middle).

T1 sequence (Q9DE14 whole entry): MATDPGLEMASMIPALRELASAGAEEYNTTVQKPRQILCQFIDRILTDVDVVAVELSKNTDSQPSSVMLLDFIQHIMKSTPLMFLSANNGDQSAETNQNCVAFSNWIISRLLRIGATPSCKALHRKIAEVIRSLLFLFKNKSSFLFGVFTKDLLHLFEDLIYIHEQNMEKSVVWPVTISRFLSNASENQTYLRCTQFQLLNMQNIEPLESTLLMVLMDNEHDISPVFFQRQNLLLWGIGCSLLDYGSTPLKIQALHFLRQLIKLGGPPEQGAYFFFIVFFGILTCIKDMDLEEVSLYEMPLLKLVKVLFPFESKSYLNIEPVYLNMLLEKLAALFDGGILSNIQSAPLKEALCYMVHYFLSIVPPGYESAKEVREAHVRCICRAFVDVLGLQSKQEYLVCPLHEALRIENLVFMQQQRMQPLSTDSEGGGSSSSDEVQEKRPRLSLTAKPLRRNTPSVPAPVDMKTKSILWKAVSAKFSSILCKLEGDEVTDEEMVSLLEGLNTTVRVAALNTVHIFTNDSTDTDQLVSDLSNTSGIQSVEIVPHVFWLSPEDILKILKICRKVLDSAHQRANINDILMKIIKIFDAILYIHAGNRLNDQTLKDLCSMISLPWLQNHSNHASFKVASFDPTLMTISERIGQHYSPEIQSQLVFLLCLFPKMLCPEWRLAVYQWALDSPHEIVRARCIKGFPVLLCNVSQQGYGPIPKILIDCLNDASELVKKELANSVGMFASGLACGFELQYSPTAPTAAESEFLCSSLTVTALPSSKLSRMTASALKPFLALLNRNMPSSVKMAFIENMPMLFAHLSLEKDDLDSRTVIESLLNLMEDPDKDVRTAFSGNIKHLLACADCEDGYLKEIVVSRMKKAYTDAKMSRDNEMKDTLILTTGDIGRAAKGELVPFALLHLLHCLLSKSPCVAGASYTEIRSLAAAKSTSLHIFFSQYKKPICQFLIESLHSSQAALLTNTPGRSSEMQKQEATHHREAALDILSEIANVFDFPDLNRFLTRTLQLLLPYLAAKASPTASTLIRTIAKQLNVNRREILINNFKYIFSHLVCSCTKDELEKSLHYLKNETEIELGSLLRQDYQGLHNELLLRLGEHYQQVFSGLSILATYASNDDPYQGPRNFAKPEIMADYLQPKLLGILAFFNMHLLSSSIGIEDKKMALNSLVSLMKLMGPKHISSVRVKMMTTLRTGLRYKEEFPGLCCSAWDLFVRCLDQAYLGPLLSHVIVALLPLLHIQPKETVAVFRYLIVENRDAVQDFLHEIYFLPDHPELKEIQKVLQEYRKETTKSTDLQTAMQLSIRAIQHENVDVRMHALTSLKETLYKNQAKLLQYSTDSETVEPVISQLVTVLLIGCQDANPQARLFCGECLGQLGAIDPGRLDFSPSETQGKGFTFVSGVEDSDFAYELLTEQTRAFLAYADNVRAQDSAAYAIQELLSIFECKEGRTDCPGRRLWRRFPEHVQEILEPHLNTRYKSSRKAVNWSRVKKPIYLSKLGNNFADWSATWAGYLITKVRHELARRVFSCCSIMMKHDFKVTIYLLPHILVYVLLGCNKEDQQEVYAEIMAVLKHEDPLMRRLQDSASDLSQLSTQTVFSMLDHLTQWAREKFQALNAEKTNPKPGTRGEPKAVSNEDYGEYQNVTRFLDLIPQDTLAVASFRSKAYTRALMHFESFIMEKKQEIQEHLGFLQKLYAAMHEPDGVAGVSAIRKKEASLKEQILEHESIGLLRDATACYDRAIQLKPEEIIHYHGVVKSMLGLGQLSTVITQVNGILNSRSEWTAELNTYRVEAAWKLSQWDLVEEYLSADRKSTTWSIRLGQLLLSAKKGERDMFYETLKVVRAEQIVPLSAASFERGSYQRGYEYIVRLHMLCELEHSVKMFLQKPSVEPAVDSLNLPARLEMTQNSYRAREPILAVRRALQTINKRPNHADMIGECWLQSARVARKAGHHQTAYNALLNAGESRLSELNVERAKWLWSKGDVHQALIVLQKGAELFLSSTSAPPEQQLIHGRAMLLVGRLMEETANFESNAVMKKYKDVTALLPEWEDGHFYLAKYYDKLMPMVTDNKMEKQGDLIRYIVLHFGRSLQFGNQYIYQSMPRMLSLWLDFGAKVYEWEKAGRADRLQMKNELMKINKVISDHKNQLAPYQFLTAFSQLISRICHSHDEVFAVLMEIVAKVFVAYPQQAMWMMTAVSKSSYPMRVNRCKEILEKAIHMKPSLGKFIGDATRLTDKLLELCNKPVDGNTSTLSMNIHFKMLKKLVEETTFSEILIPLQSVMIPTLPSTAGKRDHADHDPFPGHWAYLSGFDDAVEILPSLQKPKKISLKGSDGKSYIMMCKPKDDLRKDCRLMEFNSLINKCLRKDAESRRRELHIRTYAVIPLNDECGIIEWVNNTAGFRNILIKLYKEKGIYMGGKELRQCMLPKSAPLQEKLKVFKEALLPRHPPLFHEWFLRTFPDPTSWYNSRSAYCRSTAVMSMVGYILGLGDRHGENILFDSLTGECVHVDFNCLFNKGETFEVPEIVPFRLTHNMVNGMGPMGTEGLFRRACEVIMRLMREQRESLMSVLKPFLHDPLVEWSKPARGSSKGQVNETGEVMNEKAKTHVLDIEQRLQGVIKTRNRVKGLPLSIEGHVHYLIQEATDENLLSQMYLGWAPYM

binding result [1]: no binding
B1: GST-XtopBP1 (1-348) (other)
chain: MASSENEPFCVKFIKSPENSEYFFKAYEAIKQIQSDESLQLTEEREALLLKEKDKSLYICDPFSGAAFSHLKKLGCRIVGPQVVIFCMENQRRVPRAEYPVYNMAMADVTISCTSLDKETREDVHHYVQIMGGCVYRDLNVSVTHLIAGEVGSKKYLVAASLEKPILLPSWVKELWEKSNQRIIRYSDVNMTEYLCPIFRGCTICVTGLSSLDRKEVQRLTALHGGEYTGQLKMNESTHLIVQEAKGQKYECARKWNVHCISVQWFFDSIEKGFCQDETMYKIEPASTIKSVPDTSTPTGGNSKPNSRALYDVSQISNISTSCVNESAFNSAMASRLDPPADTLENLD
notes: BRCT-containing fragment; not shown: glutathione-S-transferase (GST) fusion partner

binding result [2]: no binding
B2: GST-XtopBP1 (1197-1513) (other)
chain: EFEPKSAMRTPVIENNLQSPTKPDHLTPTPQAPSIAFPLANPPVAPQPREKPVQPFSKEETLKERRFQLSSLDPQERIDYSQLIEELGGVVIEKQCFDPSCTHIVVGHPLRNEKYLASMAAGKWVLHRSYLEACRAAKRFIQEEDYEWGSISILSAVTNINPQQRMLAEAAMRWRKKLQGIKQNMGIAEGAFSGWKVILNVDQTKEPGFKRLLQSGGAKVFAGHSSPLFKEASHLFADFSKLKPDEPRVNVAEAAAQGVNCLKPEYIADYLMKELPPPMNNYCLPDAIPYVRVTGTGLSRKRKTSGDVSDVKRSRHY
notes: as for B1

binding result [1]: no binding
B3: GST-XtopBP1 (623-984) (other)
chain: TPVPFLEGSTPLRECVLSVSQFMGAERDSLVYLAGLLGAKVQEFFVRKANPKKGMFASTHLVLKDAEGSKYEAAKKWNLPAVTMNWLLQCARTGRKADEDSYLVDNVPEEDKDESFISQTYKPQAIRLSMHAPCHLENHPEALTKAAVTPLDMNRFKSKAFQSVISQHNKNPQTSGGESKVLQREPSLHLDTPSKFLSKDKLFKPSFDVKDALAALETPGGPNQKNRTQSTPLSEVIGRNLQLAIANSTRQTAAVTASPQLKAAEKKEFDNSKLLINVVICVSKKLIKKQGELNGIAASLGAEYRWCFDESVTHFIYHGRQNDMSREYKSVKERSGIYIVSEHWLFACSEQQKRVPEALYPH
notes: BRCT-containing fragment; also called GST fusion of the 623-984 segment from XtopBP1; not shown: glutathione-S-transferase (GST) fusion partner

binding result [1]: no binding
B4: GST-XtopBP1 (333-646) (other)
chain: MASRLDPPADTLENLDISSLQAPDDLLDGCRIYLCGFGGRKLDKLRKLINNGGGVRFNQLTGDVTHIIVGETDEELKQFLNKTQHRPYVLTVKWLLDSFAKGHLQPEEIYFHSSYQQTEMPSPFEPAINLTANKMSSTRGPLNHTRNHQADEDLLSQYTENNSTLIEDEHPKTSNTNSISQMSMHEDMTTCTSQSGLADTSTIIEGGLFSRKQFMVLGFLEEDEACIIDIIKKSAGKVLSSQKRAIADYAVVPLLGCEVESTVGEVVTNAWLGMCIEQEKLLDPHSNALFTPVPFLEGSTPLRECVLSVSQFMG
notes: as for B1
